In paper PMC5413351, “Structural basis of protein translocation by the Vps4-Vta1 AAA ATPase” (eLife, 2017):
Substitutions are numbered along the chain they refer to.

B1: Vps4^101-437: yeast Vps4 construct (residues 101–437) spanning the AAA ATPase cassette (protein, UniProt P52917 101-437, looked up, fragment)
chain: QEEGEDNGGEDNKKLRGALSSAILSEKPNVKWEDVAGLEGAKEALKEAVILPVKFPHLFKGNRKPTSGILLYGPPGTGKSYLAKAVATEANSTFFSVSSSDLVSKWMGESEKLVKQLFAMARENKPSIIFIDEVDALTGTRGEGESEASRRIKTELLVQMNGVGNDSQGVLVLGATNIPWQLDSAIRRRFERRIYIPLPDLAARTTMFEINVGDTPCVLTKEDYRTLGAMTEGYSGSDIAVVVKDALMQPIRKIQSATHFKDVSTEDDETRKLTPCSPGDDGAIEMSWTDIEADELKEPDLTIKDFLKAIKSTRPTVNEDDLLKQEQFTRDFGQEGN
B2: Vps4(101-437) L151D (protein)
chain: B1 chain with L51D
modifications: left off: 6xHis, N-terminal, cleaved
B3: Vps4 full-length: yeast AAA ATPase Vps4, full-length (pET151-Vps4) (protein)
chain 1: MSTGDFLTKGIELVQKAIDLDTATQYEEAYTAYYNGLDYLMLALKYEKNPKSKDLIRAKFTEYLNRAEQLKKHLESEEANAAKKSPSAGSGSNGGNKKISQEEGEDNGGEDNKKLRGALSSAILSEKPNVKWEDVAGLEGAKEALKEAVILPVKFPHLFKGNRKPTSGILLYGPPGTGKSYLAKAVATEANSTFFSVSSSDLVSKWMGESEKLVKQLFAMARENKPSIIFIDEVDALTGTRGEGESEASRRIKTELLVQMNGVGNDSQGVLVLGATNIPWQLDSAIRRRFERRIYIPLPDLAARTTMFEINVGDTPCVLTKEDYRTLGAMTEGYSGSDIAVVVKDALMQPIRKIQSATHFKDVSTEDDETRKLTPCSPGDDGAIEMSWTDIEADELKEPDLTIKDFLKAIKSTRPTVNEDDLLKQEQFTRDFGQEGN
chain 2: MASNAARVVATAKDFDKVGLGIIGYYLQLYAVELILSEEDRSQEMTALATELLDTIEAFKKEIGGESEAEDSDKSLHVMNTLIHDQEKAKIYMLNFTMSLYNEKLKQLKDGPWDVMLKRSLWCCIDLFSCILHLWKENISETSTNSLQKRIKYCKIYLSKLAKGEIGSSDEKTLDYADFADDSEEIKDEDVDHQTSDLENNNNDKVEGLAPKDQTTSYEPVDEVPEFIDDADSVNEEEQTVDKNEDAITKDEQQVVKKEVDLTRPSAPSEPAAAEHKSYTKDELTKIMDRASKIEQIQKLAKYAISALNYEDLPTAKDELTKALDLLNSI
modifications: left off: 6xHis, N-terminal, cleaved | 6xHis, N-terminal, cleaved
B4: Vps4^81-437: Vps4 construct residues 81-437 (pET151-Vps4(81-437)) (protein, UniProt P52917 81-437, looked up, fragment)
chain: AAKKSPSAGSGSNGGNKKISQEEGEDNGGEDNKKLRGALSSAILSEKPNVKWEDVAGLEGAKEALKEAVILPVKFPHLFKGNRKPTSGILLYGPPGTGKSYLAKAVATEANSTFFSVSSSDLVSKWMGESEKLVKQLFAMARENKPSIIFIDEVDALTGTRGEGESEASRRIKTELLVQMNGVGNDSQGVLVLGATNIPWQLDSAIRRRFERRIYIPLPDLAARTTMFEINVGDTPCVLTKEDYRTLGAMTEGYSGSDIAVVVKDALMQPIRKIQSATHFKDVSTEDDETRKLTPCSPGDDGAIEMSWTDIEADELKEPDLTIKDFLKAIKSTRPTVNEDDLLKQEQFTRDFGQEGN

How the values were obtained:
[1] = ATPase assay (malachite green end-point); type: biochemical, S. cerevisiae; conditions: 1 mM ATP, 37°C, 5 min, pH 7.4, mean of all runs
Description: The rate of ATP hydrolysis was determined using an end-point method modified from Merrill and Hanson ([Merrill and Hanson, 2010]). Vps4 at the indicated subunit concentration was incubated with 1 mM ATP at 37°C in 20 mM HEPES/NaOH pH 7.4, 100 mM NaCl, 10 mM MgCl2, 1 mM DTT in a total volume of 10 µl. The hydrolysis reaction was stopped after 5 min by the addition of 100 µl of malachite green color reagent (14 mM ammonium molybdate, 1.3 M HCl, 1.5 mM malachite green) and 50 µl of 21% (w/v) citric acid. Absorbance at 650 nm was read using a Biotek Neo Synergy microplate reader and the amount of inorganic phosphate released by the reaction was determined using a sodium phosphate standard curve. Means and standard deviations reported in Figure 1D are from at least three independent experiments using different protein preparations with three or more technical replicates each.

Vps4^101-437 = target: T1, Vps4^101-437 (Saccharomyces cerevisiae, UniProt P52917, L151D); type: binding, S. cerevisiae; conditions: global fit of replicate titrations over [Vps4 monomer], uM, m1 = 1; L151D mutant; Std. Error 0.218; 95% CI (profile likelihood) 4.01 to 4.887; read-out: Kd (fit to normalized anisotropy data, best-fit value)
T1 construct: 6xHis (TEV-cleavable) (N, cleaved yes); made in house; host or cells: E. coli BL21(DE3)RIL
Description: Fluorescence polarization assay for ESCRT-III peptide binding
When equilibrium was reached, parallel and perpendicular fluorescence intensities were measured on a Biotek Synergy Neo HTS microplate reader using an excitation wavelength of 485 nm and an emission wavelength of 528 nm.

T1 sequence (P52917 101-437 L151D): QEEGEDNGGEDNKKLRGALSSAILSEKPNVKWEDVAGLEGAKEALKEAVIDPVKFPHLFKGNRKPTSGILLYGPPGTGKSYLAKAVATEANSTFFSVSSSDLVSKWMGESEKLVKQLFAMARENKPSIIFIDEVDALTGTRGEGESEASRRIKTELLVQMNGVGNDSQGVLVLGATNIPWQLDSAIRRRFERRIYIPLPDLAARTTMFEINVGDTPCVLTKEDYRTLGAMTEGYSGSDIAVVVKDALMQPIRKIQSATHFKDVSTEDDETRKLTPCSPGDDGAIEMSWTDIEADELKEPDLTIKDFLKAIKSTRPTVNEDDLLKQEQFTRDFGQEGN

Molecule	ATPase activity, average ([1]; 0.05 μM Vps4 subunits) [ATP/min/Vps4 hexamer]	ATPase activity, average ([1]; 1 μM Vps4 subunits) [ATP/min/Vps4 hexamer]	Kd (Vps4^101-437) [µM]
B1	-26.1936	418.838	
B2			4.43
B3	19.8582	701.731	
B4	-6.194	456.338	
